± gives the uncertainty stated by the source.

The series can be described thus: abundance fitness (aPCA) (normalised: wild type 0, dead -1); higher = more abundant; growth selection in yeast, the domain comes from the species named. The following applies: Homo sapiens.
For “DnaJ homolog subfamily B member 1 A49F, P25685”, the abundance fitness is -0.358 ± 0.15. In the case of “DnaJ homolog subfamily B member 1 A49G, P25685”, the abundance fitness was -0.187 ± 0.12. As for “DnaJ homolog subfamily B member 1 A49H, P25685”, the abundance fitness is -0.132 ± 0.18.

Turning to “DnaJ homolog subfamily B member 1 A49I, P25685”, the abundance fitness is -0.304 ± 0.16. Next, “DnaJ homolog subfamily B member 1 A49K, P25685”: 0.13 ± 0.13; “DnaJ homolog subfamily B member 1 A49L, P25685”: -0.75 ± 0.086; “DnaJ homolog subfamily B member 1 A49N, P25685”: 0.115 ± 0.17.

In the case of “DnaJ homolog subfamily B member 1 A49P, P25685”, the abundance fitness was -0.743 ± 0.074.

Consider “DnaJ homolog subfamily B member 1 A49Q, P25685”, for which the abundance fitness was -0.394 ± 0.086. Next, “DnaJ homolog subfamily B member 1 A49R, P25685”: 0.021 ± 0.082; “DnaJ homolog subfamily B member 1 A49S, P25685”: -0.037 ± 0.074; “DnaJ homolog subfamily B member 1 A49T, P25685”: 0.094 ± 0.099. With “DnaJ homolog subfamily B member 1 A49W, P25685”, the abundance fitness was -0.307 ± 0.088. For “DnaJ homolog subfamily B member 1 A49Y, P25685”, the abundance fitness was -0.277 ± 0.18. In the case of “DnaJ homolog subfamily B member 1 A51C, P25685”, the abundance fitness was -0.755 ± 0.18. For “DnaJ homolog subfamily B member 1 A51D, P25685” the value was -1.19 ± 0.16. With “DnaJ homolog subfamily B member 1 A51E, P25685”, the abundance fitness is -0.718 ± 0.098.

Consider “DnaJ homolog subfamily B member 1 A51F, P25685”, for which the abundance fitness is -1.49 ± 0.19. For the substance “DnaJ homolog subfamily B member 1 A51G, P25685”, the abundance fitness was -0.628 ± 0.061. For “DnaJ homolog subfamily B member 1 A51I, P25685” the value was -0.977 ± 0.17; for “DnaJ homolog subfamily B member 1 A51K, P25685”, -0.885 ± 0.15; for “DnaJ homolog subfamily B member 1 A51L, P25685”, -1.06 ± 0.082. On to “DnaJ homolog subfamily B member 1 A51M, P25685”, for which the abundance fitness is -1.1 ± 0.085. Take “DnaJ homolog subfamily B member 1 A51P, P25685”: the abundance fitness is -0.488 ± 0.098. For “DnaJ homolog subfamily B member 1 A51Q, P25685” the value was -0.755 ± 0.086. Turning to “DnaJ homolog subfamily B member 1 A51R, P25685”, the abundance fitness was -0.84 ± 0.067. For “DnaJ homolog subfamily B member 1 A51S, P25685” the value was -0.406 ± 0.08. As for “DnaJ homolog subfamily B member 1 A51T, P25685”, the abundance fitness was -0.815 ± 0.071. For “DnaJ homolog subfamily B member 1 A51V, P25685”, the abundance fitness was -0.915 ± 0.065. Next, “DnaJ homolog subfamily B member 1 A51W, P25685”: -1.08 ± 0.096; “DnaJ homolog subfamily B member 1 A51Y, P25685”: -0.576 ± 0.39. For “DnaJ homolog subfamily B member 1 D4E, P25685” the value was -0.186 ± 0.19; for “DnaJ homolog subfamily B member 1 D4F, P25685”, -0.608 ± 0.48. For “DnaJ homolog subfamily B member 1 D4G, P25685” the value was -0.398 ± 0.17; for “DnaJ homolog subfamily B member 1 D4H, P25685”, -0.236 ± 0.44.

“DnaJ homolog subfamily B member 1 D4L, P25685”: the abundance fitness is -0.341 ± 0.23. For the substance “DnaJ homolog subfamily B member 1 D4M, P25685”, the abundance fitness is -0.196 ± 0.15. Next, “DnaJ homolog subfamily B member 1 D4P, P25685”: -0.712 ± 0.16. For the substance “DnaJ homolog subfamily B member 1 D4R, P25685”, the abundance fitness is -0.151 ± 0.17. For “DnaJ homolog subfamily B member 1 D4S, P25685” the value was -0.193 ± 0.19; for “DnaJ homolog subfamily B member 1 D4T, P25685”, -0.207 ± 0.18; for “DnaJ homolog subfamily B member 1 D4V, P25685”, -0.433 ± 0.13. For “DnaJ homolog subfamily B member 1 D4Y, P25685”, the abundance fitness is -0.256 ± 0.19. Turning to “DnaJ homolog subfamily B member 1 D17A, P25685”, the abundance fitness was -0.072 ± 0.096.

Regarding “DnaJ homolog subfamily B member 1 D17C, P25685”, the abundance fitness came out at 0.031 ± 0.23. “DnaJ homolog subfamily B member 1 D17E, P25685”: the abundance fitness was -0.095 ± 0.1. In the case of “DnaJ homolog subfamily B member 1 D17F, P25685”, the abundance fitness was -0.183 ± 0.12.

With “DnaJ homolog subfamily B member 1 D17G, P25685”, the abundance fitness is -0.199 ± 0.087.

Regarding “DnaJ homolog subfamily B member 1 D17H, P25685”, the abundance fitness was -0.182 ± 0.13. Consider “DnaJ homolog subfamily B member 1 D17I, P25685”, for which the abundance fitness is -0.029 ± 0.076. In the case of “DnaJ homolog subfamily B member 1 D17K, P25685”, the abundance fitness is -0.287 ± 0.14. “DnaJ homolog subfamily B member 1 D17L, P25685” returned an abundance fitness of 0.038 ± 0.072. “DnaJ homolog subfamily B member 1 D17M, P25685”: the abundance fitness was -0.06 ± 0.089. Next, “DnaJ homolog subfamily B member 1 D17N, P25685”: -0.104 ± 0.12; “DnaJ homolog subfamily B member 1 D17P, P25685”: -0.18 ± 0.071. In the case of “DnaJ homolog subfamily B member 1 D17R, P25685”, the abundance fitness was -0.211 ± 0.084. With “DnaJ homolog subfamily B member 1 D17S, P25685”, the abundance fitness is -0.094 ± 0.073. As to “DnaJ homolog subfamily B member 1 D17T, P25685”, the abundance fitness is -0.161 ± 0.11.

Regarding “DnaJ homolog subfamily B member 1 D17V, P25685”, the abundance fitness is -0.059 ± 0.053. With “DnaJ homolog subfamily B member 1 D17W, P25685”, the abundance fitness is -0.142 ± 0.15. Consider “DnaJ homolog subfamily B member 1 D17Y, P25685”, for which the abundance fitness was -0.09 ± 0.078.

With “DnaJ homolog subfamily B member 1 D34A, P25685”, the abundance fitness amounted to 0.058 ± 0.14.

With “DnaJ homolog subfamily B member 1 D34C, P25685”, the abundance fitness turned out to be 0.009 ± 0.14. For “DnaJ homolog subfamily B member 1 D34E, P25685” the value was 0.188 ± 0.33; for “DnaJ homolog subfamily B member 1 D34F, P25685”, -0.249 ± 0.1. Take “DnaJ homolog subfamily B member 1 D34G, P25685”: the abundance fitness is -0.012 ± 0.11. For “DnaJ homolog subfamily B member 1 D34H, P25685” the value was -0.008 ± 0.11. Consider “DnaJ homolog subfamily B member 1 D34I, P25685”, for which the abundance fitness was -0.233 ± 0.1. As for “DnaJ homolog subfamily B member 1 D34K, P25685”, the abundance fitness was -0.046 ± 0.074. Take “DnaJ homolog subfamily B member 1 D34L, P25685”: the abundance fitness was -0.042 ± 0.066. Next, “DnaJ homolog subfamily B member 1 D34M, P25685”: -0.053 ± 0.1; “DnaJ homolog subfamily B member 1 D34N, P25685”: -0.039 ± 0.17; “DnaJ homolog subfamily B member 1 D34P, P25685”: -0.285 ± 0.094. As to “DnaJ homolog subfamily B member 1 D34Q, P25685”, the abundance fitness amounted to 0.054 ± 0.11. For “DnaJ homolog subfamily B member 1 D34R, P25685” the value was -0.242 ± 0.089; for “DnaJ homolog subfamily B member 1 D34S, P25685”, 0.075 ± 0.061.

For the substance “DnaJ homolog subfamily B member 1 D34V, P25685”, the abundance fitness was -0.022 ± 0.081. Consider “DnaJ homolog subfamily B member 1 D34W, P25685”, for which the abundance fitness is -0.02 ± 0.15. On to “DnaJ homolog subfamily B member 1 D34Y, P25685”, for which the abundance fitness is -0.135 ± 0.081. For “DnaJ homolog subfamily B member 1 D53A, P25685” the value was -0.036 ± 0.088.

In the case of “DnaJ homolog subfamily B member 1 D53C, P25685”, the abundance fitness is -0.093 ± 0.37.

As for “DnaJ homolog subfamily B member 1 D53E, P25685”, the abundance fitness is -0.398 ± 0.12. With “DnaJ homolog subfamily B member 1 D53F, P25685”, the abundance fitness was -0.249 ± 0.19. In the case of “DnaJ homolog subfamily B member 1 D53G, P25685”, the abundance fitness is -0.098 ± 0.15. Next, “DnaJ homolog subfamily B member 1 D53H, P25685”: -0.262 ± 0.1. Consider “DnaJ homolog subfamily B member 1 D53I, P25685”, for which the abundance fitness was -0.224 ± 0.11. Next, “DnaJ homolog subfamily B member 1 D53K, P25685”: -0.067 ± 0.11. Next, “DnaJ homolog subfamily B member 1 D53L, P25685”: -0.058 ± 0.066; “DnaJ homolog subfamily B member 1 D53M, P25685”: -0.124 ± 0.09; “DnaJ homolog subfamily B member 1 D53N, P25685”: 0.035 ± 0.12. Take “DnaJ homolog subfamily B member 1 D53P, P25685”: the abundance fitness was -0.709 ± 0.079.

Source of the values: the Human Domainome abundance scans (Beltran et al. 2025).
